Laboratory results from patent publication US11535851B2, “Reagents for treatment of hepatitis B virus (HBV) infection and use thereof” (priority 2016, dated 2022).

Assays:
[1] = test system: Luciferase reporter constructs carrying effector or effector complement sequences (HBV transcripts); assay: Dual-luciferase reporter assay (strand preference activity) in HEK293 cells; assay type: cell-based; conditions: FIG. 1A; for activity of constructs in luciferase reporter assay: compared directly to corresponding shRNA constructs; for antisense (effector) strand activity (strand preference activity): relative to shRNA expressing counterparts
Method: Efficacy of the ddRNAi constructs expressing shmiRs or shRNAs of the disclosure to knockdown HBV transcripts is determined using dual-luciferase reporter assays in HEK293 cells.
Plasmid reporter constructs based on the pGL3 Luciferase Reporter Vector are constructed for effector and effector complement sequences from each of the shmiRs and shRNAs of the disclosure. Luciferase reporter constructs e.g., firefly luciferase reporter constructs, are generated by inserting the respective effector sequence or effector complement sequence of the shmiRs or shRNAs (as appropriate) with 20 bp flanking sequences at each end into the pGL3-control vector (Promega, Madison, Wis.). The inserts are subcloned using FseI and XbaI restriction enzyme sites following the luciferase reporter gene.
The dual-luciferase reporter assays are performed in HEK293 cells (ATCC). The HEK293 cells are cultured in DMEM medium containing 10% fetal bovine serum, 2 mM glutamine, penicillin (100 U/mL), and streptomycin (100 μg/mL) at 37° C. humid incubator with 5% CO2. The HEK293 cell are seeded at a density of 2×10^4 cells per well into 96-well culture plate one day prior to transfection.
ddRNAi expression constructs described in Example 1 (i.e., ddRNAi constructs designated HBV-shmiR1 to HBV-shmiR16, HBV-shmiRx3-v1 and HBV-shmiRx3-v2) are synthesized and inserted into an appropriate plasmid vector e.g., a pSsh vector, optionally with a proximal sequence element 7 (PSE7) for constructs expressing shRNAs.
Expression vectors comprising the ddRNAi expression constructs are co-transfected into HEK293 cells with a Luciferase reporter construct e.g., a firefly luciferase reporter construct, expressing an effector sequence or effector complement sequence of the corresponding shmiR or shRNA (as appropriate) at a ratio of 10:1 (ddRNAi expression construct: Luciferase reporter construct) using 0.3 uL of Lipofectamine 2000 reagent (Life Technologies, Carlsbad, Calif.) according to manufacturer's instructions. Cells are also transfected with 1 ng of a Renilla reporter construct (serving as a transfection control). 48 hour post-transfection, cell lysates are collected and analyzed using Dual Luciferase Reporter Assay System (Promega, Madison, Wis.). The firefly/Renilla activity ratios are determined for each transfection. Percentage inhibition of reporter expression is calculated relative to a negative control e.g., a construct expressing a random non-targeting sequence. The experiment is performed in replicate.
In addition, the three ddRNAi shmiR constructs (i.e., the ddRNAi shmiR constructs expressing shmiR6, shmiR15 and shmiR12 respectively) were compared for strand preference activity relative to their shRNA expressing counterparts.
The influence of addition of an ‘A’ nucleotide at the 3′ end or a ‘G’ nucleotide at the 5′ end of the sense sequence on thermodynamics of the shmiR variant was also assessed. The idea is to allow for the antisense (or effector) strand to be preferentially loaded into the RISC complex for functional RNAi activity.

HepG2.2.15 cells = assay: RNAi effector molecules (copies per cell) in HepG2.2.15 cells transduced with AdV vectors; assay type: cell-based, human; conditions: HepG2.2.15, AdV vectors MOI 100, days 3-6; versus corresponding shRNA; FIG. 3
Method: Single and triple shmiR or shRNA AdV vectors were prepared by subcloning the ddRNAi expression constructs described in Example 1 (i.e., ddRNAi constructs designated HBV-shmiR1 to HBV-shmiR16, HBV-shRNA1-HBV-shRNA16, HBV-shmiRx3-v1, HBV-shmiRx3-v2 and HBV-shRNAx3-v1) into a adenovirus (AdV) construct for virus production (Vector Biolabs, Malvern Pa.).
HepG2.2.15 cells were infected with the HBV shmiR AdV vectors or HBV shRNA AdV vectors in cell suspension and cultured on multi-well plates. Each well contained a suspension of approximately 1.25×10^5 HepG2.2.15 cells and one of the single or triple HBV shmiR AdV vectors, or one of the single or triple HBV shRNA AdV vectors, at MOI-100. Following transduction, cells were cultured at 37° C. at 5% CO2 for 3-7 days and harvested for total RNA isolation using Qiagen miRNeasy mini kit (Valencia, Calif.) at 3, 4, 5, and 6 days post-transfection.
Total RNAs were quantified using the NanoDrop 1000 Spectrophotometer (Thermo Scientific) and then diluted to a working concentration of 10 ng/μl.
RNAi effector molecules expressed as copies per cell were determined for shmiR-12 and shmiR-15 (FIGS. 3A and 3B, respectively) when expressed in HepG2.2.15 cells from single or triple HBV shmiR AdV vector(s) using Qiagen's miScript PCR system (designed to quantitate RNA effector molecules processed from shmiR or shRNA). […]

[2] = test system: HBV transcripts at regions corresponding to HBsAg, HBcAg and HbxAg; assay: Inhibition of HBV transcripts in HepG2.2.15 cells transduced with AdV vectors (RT-qPCR, relative to GAPDH mRNA); assay type: cell-based, HBV (serotype ayw, genotype D); conditions: HepG2.2.15, MOI of 100, 3, 4, 5 and 6 days after infection; versus corresponding shRNA constructs; FIG. 4
Method: Levels of inhibition of HBV transcripts at regions corresponding to HBV antigens HBsAg, HBcAg and HbxAg, relative to levels of GAPDH mRNA, are determined by normalizing the respective HBV mRNA transcript levels to GAPDH mRNA for each sample. Briefly, 100 ng of total RNA is used to synthesize cDNA using High Capacity cDNA Reverse Transcription Kit (Life Technologies, Carlsbad, Calif.) according to manufacturer instructions. Quantitative PCR amplifications of regions within HBV antigens HBsAg, HBcAg, HbxAg, and GAPDH is then performed using Power SYBR Green PCR Master Mix (Life Technologies) and the primer sets listed in Table 1. Standard real-time PCR conditions are used: initial denaturation at 95° C. for 10 min followed by 40 cycles of 95° C. for 15 sec and 60° C. for 1 min. […]
Levels of inhibition of HBV transcripts at regions corresponding to HBV antigens HBsAg, HBcAg and HbxAg, relative to levels of GAPDH mRNA, were determined according to the method described in Example 5.
Levels of inhibition of HBV transcripts at regions corresponding to HBV antigens HBsAg, HBcAg and HbxAg, relative to levels of GAPDH mRNA, for each shmiR of the disclosure (expressed individually, or as part of a triple construct), was determined at an MOI of 100 at 3, 4, 5 and 6 days after infection with HBV shmir or shRNA AdV vectors.

B1: shmiR-6: shmiR targeting HBV; RNA SEQ ID NO: 48, encoded by DNA SEQ ID NO: 64 (nucleic acid)
chain: GGUAUAUUGCUGUUGACAGUGAGCGACAGGUCCCCUAGAAGAAGAAACUGUGAAGCAGAUGGGUUUCUUCUUCUAGGGGACCUGCCGCCUACUGCCUCGGACUUCAA
modifications: expressed or natural sequence
- activity of constructs in luciferase reporter assay [1]: more effective than the corresponding shRNA constructs
- antisense (effector) strand activity (strand preference activity) [1]: higher antisense (effector) strand activity relative to the corresponding shRNAs

B2: shmiR-15: shmiR targeting HBV; RNA SEQ ID NO: 57, encoded by DNA SEQ ID NO: 73 (nucleic acid)
chain: GGUAUAUUGCUGUUGACAGUGAGCGAAGUGGUUCGUAGGGCUUUCCACUGUGAAGCAGAUGGGUGGAAAGCCCUACGAACCACUGCGCCUACUGCCUCGGACUUCAA
modifications: expressed or natural sequence
- activity of constructs in luciferase reporter assay [1]: more effective than the corresponding shRNA constructs
- antisense (effector) strand activity (strand preference activity) [1]: higher antisense (effector) strand activity relative to the corresponding shRNAs
- levels of effector RNAi molecule (copies per cell) (HepG2.2.15 cells): higher than the corresponding shRNAs
- silencing of HBV RNAs (HBsAg, HBcAg, HbxAg regions) [2]: greater silencing of HBV RNAs compared to the corresponding shRNA expressing constructs

B3: shmiR-12: shmiR targeting HBV; RNA SEQ ID NO: 54, encoded by DNA SEQ ID NO: 70 (nucleic acid)
chain: GGUAUAUUGCUGUUGACAGUGAGCGAGUCCCGUCGGCGCUGAAUCCACUGUGAAGCAGAUGGGUGGAUUCAGCGCCGACGGGACGCGCCUACUGCCUCGGACUUCAA
modifications: expressed or natural sequence
- activity of constructs in luciferase reporter assay [1]: more effective than the corresponding shRNA constructs
- antisense (effector) strand activity (strand preference activity) [1]: higher antisense (effector) strand activity relative to the corresponding shRNAs
- levels of effector RNAi molecule (copies per cell) (HepG2.2.15 cells): higher than the corresponding shRNAs
- silencing of HBV RNAs (HBsAg, HBcAg, HbxAg regions) [2]: greater silencing of HBV RNAs compared to the corresponding shRNA expressing constructs
